Experimental findings from US5451522A, “Genes encoding and method of expressing an enzyme: phthalyl amidase” (priority 1994, dated 1995) are described below.

For data set [1], the target named is phthalyl-L-Asp-L-Phe-OMe (compound XIV).
Data set [2] concerns the target T1, phthalyl amidase (Xanthobacter agilis, UniProt P0C2Y0).
T1 construct: 42-aa signal peptide removed
T1 sequence (P0C2Y0 whole entry, looked up): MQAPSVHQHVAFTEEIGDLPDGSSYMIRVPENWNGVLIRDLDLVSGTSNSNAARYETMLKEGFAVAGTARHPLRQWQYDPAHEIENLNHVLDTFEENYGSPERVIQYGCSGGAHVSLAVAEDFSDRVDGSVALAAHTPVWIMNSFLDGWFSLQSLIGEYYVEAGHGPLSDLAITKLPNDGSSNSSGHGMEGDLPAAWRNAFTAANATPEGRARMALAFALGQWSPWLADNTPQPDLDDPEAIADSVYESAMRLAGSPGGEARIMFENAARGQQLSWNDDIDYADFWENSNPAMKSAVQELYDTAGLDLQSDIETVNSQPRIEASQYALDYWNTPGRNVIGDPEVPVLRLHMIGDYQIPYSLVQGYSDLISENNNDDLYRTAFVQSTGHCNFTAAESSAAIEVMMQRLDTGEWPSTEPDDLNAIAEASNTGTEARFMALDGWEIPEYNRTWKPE
Put plainly: Effect of pH on phthalyl amidase activity (substrate III, HPLC). The settings on record: 50 mM potassium phosphate, 32° C. It is filed as biochemical. As for the experimental part: The effect of pH on the reaction rate of the analytical scale purified enzyme was determined using phthalamido carbacephem (III) as substrate. [drawing 5]
A typical reaction mixture consisted of 1 ml total volume and contained 0.1 mM III, 0.1 μM phthalyl amidase in 50 mM potassium phosphate buffer (pH 5.5-9.0) at 32° C. for 20 minutes. The reactions were stopped by the addition of 1 ml methanol. After removal of precipitate by centrifugation, an aliquot of the supernatant fraction (typically 30 μ) was monitored for the beta-lactam nucleus and phthalic acid by HPLC using a Zorbax C8 column (0.46×15 cm; MacMod Analytical Inc., Chadds Ford, Pa.). The two reaction products were eluted by a mobile phase constructed as continuous mixed gradients from (a) 1% ACN (acetonitrile)/0.2% TFA (trifluoroacetic acid) and (b) 80% ACN/0.2% TFA as follows: 1) 0% (b), 3 min; 2) 0-50% (b), 0.5 min; 3) 50-100% (b), 3 min; 4) 100% (b), 2.5 min; 5) 100-0% (b), 0.1 min; and 6) 0% (b), 5 min. At a flow rate of 1.5 ml/min, retention times of the beta-lactam nucleus and phthalic acid, as measured at 254 nm, were 2.3 and 7.2 min, respectively.

Data set [3] has as its target T1, phthalyl amidase. The experiment in a line: Optimum salt concentration. It is filed as biochemical. The settings on record: 32° C., substrate III. As for the experimental part:
Test reactions were carried out similar to Example 6 except that buffer concentrations ranging from 10 to 200 mM at 32° C. were examined. All other conditions and analyses were the same.

Data set [4] deals with T1, phthalyl amidase. The experiment in a line: Stability of phthalyl amidase (ionic strength, pH, temperature). The class given is physicochemical. Here is the method: The stability of phthalyl amidase at pH values ranging from 6-9 was determined as described in Example 5 at 30° C. in both 20 and 200 mM potassium phosphate buffer. […] In 200 mM buffer, the enzyme retained at least 80% of its activity for 100 hours irrespective of the pH of the incubating medium.
The phthalyl amidase enzyme was also tested for stability at varying temperatures. The enzyme was incubated at pH 8.2 in the temperature range of 4°-50° C. for 48 hours in 50 and 200 mM phosphate buffer. […] In 200 mM buffer, 80% of the enzyme activity was retained in temperatures up to 35° C. and 30% of the enzyme activity was retained after 48 hours incubation at 40° C.

Data set [5] addresses T1, phthalyl amidase. Put plainly: Optimum reaction temperature. It is filed as biochemical. The conditions noted are these: substrate III, 50 mM potassium phosphate, pH 8.2. Here is the method: Test reactions were carried out similar to Example 5 except that all incubations were performed in 50 mM potassium phosphate buffer at pH 8.2. Solutions of the substrate were pre-incubated for 5 minutes at temperatures between 2° and 60° C. The enzymatic reaction was initiated by the addition of phthalyl amidase and stopped by the addition of 1 ml methanol. Specific activity of the enzyme was determined by monitoring the hydrolysis of III by HPLC as in Example 5.

Substrate in data set [6]: CCCCCCC(C(=O)O)n1cnc(NC(=O)c2c(F)cccc2C(=O)O)c1
Put plainly: Kinetic parameters for phthalyl amidase. The conditions noted are these: other: 32° C., pH 8.2; II, XVII, XVIII with 0.9 μg/ml enzyme, III and XI with 5.14 μg/ml; pH 8.2; 32.0 °C. The class given is biochemical, Xanthobacter agilis. As for the experimental part: (§1) The kinetic parameters of the enzyme were determined for several representative substrates. Compounds II, XVII, and XVIII were tested using 0.9 μg/ml of enzyme. Compounds III and XI were tested using 5.14 μg/ml of enzyme. Substrate concentrations were between 0 and 25 mM and reaction time was between 2 and 20 minutes, depending on the substrate used. […] Km is the Michaelis constant for enzyme kinetics, Vmax is the maximal rate of reaction calculated by the Michaelis-Menten equation, and Kcat is the catalytic constant for an enzyme reaction.

Substrate in data set [7]: O=C(O)c1ccccc1C(=O)Nc1ccc([N+](=O)[O-])c(C(=O)O)c1
The experiment in a line: Kinetic parameters for phthalyl amidase. The settings on record: other: 32° C., pH 8.2; II, XVII, XVIII with 0.9 μg/ml enzyme, III and XI with 5.14 μg/ml; pH 8.2; 32.0 °C. The class given is biochemical, Xanthobacter agilis. Here is the method:
as §1

Substrate in data set [8]: CCCCCCC(C(=O)O)n1cnc(NC(=O)c2ccccc2C(=O)O)c1
The experiment in a line: Kinetic parameters for phthalyl amidase. It is filed as biochemical, Xanthobacter agilis. The conditions noted are these: other: 32° C., pH 8.2; II, XVII, XVIII with 0.9 μg/ml enzyme, III and XI with 5.14 μg/ml; pH 8.2; 32.0 °C. Here is the method: as §1

Substrate in data set [9]: O=C(O)CNC(=O)c1ccccc1C(=O)O
Put plainly: Kinetic parameters for phthalyl amidase. It is filed as biochemical, Xanthobacter agilis. The settings on record: other: 32° C., pH 8.2; II, XVII, XVIII with 0.9 μg/ml enzyme, III and XI with 5.14 μg/ml; pH 8.2; 32.0 °C. Here is the method:
as §1

Substrate in data set [10]: O=C(O)C1=C(Cl)CCC2C(NC(=O)c3ccccc3C(=O)O)C(=O)N12
The experiment in a line: Kinetic parameters for phthalyl amidase. The class given is biochemical, Xanthobacter agilis. Here is the method:
as §1

B1: phthalyl amidase (mature enzyme, purified from Xanthobacter agilis) (enzyme)
chain: QAPSVHQHVAFTEEIGDLPDGSSYMIRVPENWNGVLIRDLDLVSGTSNSNAARYETMLKEGFAVAGTARHPLRQWQYDPAHEIENLNHVLDTFEENYGSPERVIQYGCSGGAHVSLAVAEDFSDRVDGSVALAAHTPVWIMNSFLDGWFSLQSLIGEYYVEAGHGPLSDLAITKLPNDGSSNSSGHGMEGDLPAAWRNAFTAANATPEGRARMALAFALGQWSPWLADNTPQPDLDDPEAIADSVYESAMRLAGSPGGEARIMFENAARGQQLSWNDDIDYADFWENSNPAMKSAVQELYDTAGLDLQSDIETVNSQPRIEASQYALDYWNTPGRNVIGDPEVPVLRLHMIGDYQIPYSLVQGYSDLISENNNDDLYRTAFVQSTGHCNFTAAESSAAIEVMMQRLDTGEWPSTEPDDLNAIAEASNTGTEARFMALDGWEIPEYNRTWKPE
modifications: N-terminus blocked (attempts to sequence the N-terminus of the purified enzyme failed)
As to B1, the Relative Activity (hydrolysis of the substrate by HPLC) (relative activity (compound III = 100.0)) in data set [1] amounted to 118.

B2: phthalyl amidase: enzyme from Xanthobacter agilis that removes the phthalyl moiety from phthalyl-containing amides (protein)
chain: B1 chain
Regarding B2, the “Specific Activity” value in data set [2] (pH 7.0, substrate III 0.1 mM) was 125.4 μmol/min/μmol enzyme; in data set [2] (pH 7.2, substrate III 0.1 mM), 130.4 μmol/min/μmol enzyme; in [2] (pH 7.4, substrate III 0.1 mM) it was 155.2 μmol/min/μmol enzyme; in [2] (pH 7.6, substrate III 0.1 mM), 172.5 μmol/min/μmol enzyme; in [2] (pH 7.8, substrate III 0.1 mM), 184.2 μmol/min/μmol enzyme; in [2] (pH 8.0, substrate III 0.1 mM), 195.3 μmol/min/μmol enzyme. The “Specific Activity” value in data set [2] (pH 8.2, substrate III 0.1 mM) is on record as 201.2 μmol/min/μmol enzyme; in data set [2] (pH 8.4, substrate III 0.1 mM), 208.0 μmol/min/μmol enzyme; in [2] (pH 8.6, substrate III 0.1 mM) it was 181.7 μmol/min/μmol enzyme; in [2] (pH 8.8, substrate III 0.1 mM), 185.1 μmol/min/μmol enzyme; in data set [2] (pH 9.0, substrate III 0.1 mM) it was 33.1 μmol/min/μmol enzyme; in data set [3] (K Phosphate buffer 10 mM), 148 μmol/min/μmol enzyme. Also, the “Specific Activity” value in data set [3] (K Phosphate buffer 50 mM) was 300 μmol/min/μmol enzyme; in data set [3] (K Phosphate buffer 100 mM) it was 350 μmol/min/μmol enzyme; in data set [3] (K Phosphate buffer 200 mM), 360 μmol/min/μmol enzyme; in data set [3] (NH4 Acetate buffer 10 mM), 25 μmol/min/μmol enzyme; in data set [3] (NH4 Acetate buffer 50 mM), 50 μmol/min/μmol enzyme; in data set [3] (NH4 Acetate buffer 100 mM), 75 μmol/min/μmol enzyme. For the same molecule, the “Specific Activity” value in data set [3] (NH4 Acetate buffer 200 mM) is on record as 100 μmol/min/μmol enzyme; in data set [3] (Tris-HCl buffer 10 mM), 73 μmol/min/μmol enzyme; in data set [3] (Tris-HCl buffer 50 mM) it was 230 μmol/min/μmol enzyme; in data set [3] (Tris-HCl buffer 100 mM) it was 275 μmol/min/μmol enzyme; in [3] (Tris-HCl buffer 200 mM), 300 μmol/min/μmol enzyme. The “Optimum ionic strength for stability” value in data set [4] is on record as at least 200 mM. Besides, the “optimum stability pH” value in [4] turned out to be 8.0±0.4. In addition, the “pH range in which the enzyme is stable” value in data set [4] was 6-9. For the same molecule, the “time within which all enzyme activity was lost” value in [4] (20 mM potassium phosphate buffer, any pH 6-9, 30° C.) was at most 2 h; in data set [4] (50 mM phosphate buffer, pH 8.2, incubation temperature above 40° C.), at most 48 h. The enzyme activity retained is 90% in data set [4] (50 mM phosphate buffer, pH 8.2, temperatures below 25° C., 48 hours); 30% in [4] (200 mM phosphate buffer, pH 8.2, 40° C., 48 hours); “at least 80%” in data set [4] (200 mM potassium phosphate buffer, pH 6-9, 30° C., 100 hours). Besides, the “temperature up to which good activity is retained” value in [4] (high salt (200 mM)) is “up to 40 °C”; in data set [4] (low salt (50 mM)), “up to 30 °C”. For the same molecule, the “enzyme activity below 10° C. and above 50° C. (in words)” value in data set [5] is reported as “Little enzyme activity”. In addition, the “temperature of maximum reaction rate” value in data set [5] was 34 °C.

B3: phthalyl amidase (Xanthobacter agilis) (protein)
chain: B1 chain
notes: 42-aa signal peptide removed
Regarding B3, the Km (in general, the substrate concentration at which the rate is half of its maximum) was 170 µM in data set [6]; 50 µM in [7]; 90 µM in [8]; 140 µM in data set [9]; 900 µM in data set [10] (other: 50 mM potassium phosphate buffer, pH 8.0, 30° C., pH 8.0, 30.0 °C); 900 µM in data set [10] (other: 32° C., pH 8.2, II, XVII, XVIII with 0.9 μg/ml enzyme, III and XI with 5.14 μg/ml, pH 8.2, 32.0 °C).
